T1: GST fusion protein of the GKAP C-terminus (50 C-terminal residues), P97836-4
T1 chain: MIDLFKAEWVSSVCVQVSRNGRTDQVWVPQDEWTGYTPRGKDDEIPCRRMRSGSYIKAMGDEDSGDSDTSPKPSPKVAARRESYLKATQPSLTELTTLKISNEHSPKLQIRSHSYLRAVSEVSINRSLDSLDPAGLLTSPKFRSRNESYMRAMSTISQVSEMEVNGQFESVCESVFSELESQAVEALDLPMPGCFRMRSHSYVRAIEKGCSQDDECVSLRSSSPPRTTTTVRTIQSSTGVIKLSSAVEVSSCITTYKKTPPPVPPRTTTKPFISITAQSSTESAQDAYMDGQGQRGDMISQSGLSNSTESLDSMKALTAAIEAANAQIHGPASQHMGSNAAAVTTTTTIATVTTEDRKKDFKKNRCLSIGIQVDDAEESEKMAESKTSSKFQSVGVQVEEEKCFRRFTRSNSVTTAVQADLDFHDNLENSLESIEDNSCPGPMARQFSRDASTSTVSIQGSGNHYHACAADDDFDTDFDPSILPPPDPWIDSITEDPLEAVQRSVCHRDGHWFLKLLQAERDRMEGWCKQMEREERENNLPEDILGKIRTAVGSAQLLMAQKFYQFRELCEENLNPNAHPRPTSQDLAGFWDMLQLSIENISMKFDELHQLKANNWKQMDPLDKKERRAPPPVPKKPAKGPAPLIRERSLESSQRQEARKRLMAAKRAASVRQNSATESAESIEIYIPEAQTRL


Target: T1, GST fusion protein of the GKAP …
Test: GST pulldown, Western blot quantification
Conditions: chain shown with the change; 293T cell lysates; four independent experiments; parent: est. 3.8; read off a plot

| response (Precipitate / Input) | Binder |
| --- | --- |
| 2.4 | mCherry-tagged human Shank2a (WT), Q9UPX8-3 S610Y (protein) MPRSPTSSEDEMAQSFSDYSVGSESDSSKEETIYDTIRATAEKPGGARTEESQGNTLVIRVVIHDLQQTKCIRFNPDATVWVAKQRILCTLTQSLKDVLNYGLFQPASNGRDGKFLDEERLLREYPQPVGEGVPSLEFRYKKRVYKQASLDEKQLAKLHTKTNLKKCMDHIQHRLVEKITKMLDRGLDPNFHDPETGETPLTLAAQLDDSVEVIKALKNGGAHLDFRAKDGMTALHKAARARNQVALKTLLELGASPDYKDSYGLTPLYHTAIVGGDPYCCELLLHEHATVCCKDENGWHEIHQACRYGHVQHLEHLLFYGADMSAQNASGNTALHICALYNQDSCARVLLFRGGNKELKNYNSQTPFQVAIIAGNFELAEYIKNHKETDIVPFREAPAYSNRRRRPPNTLAAPRVLLRSNSDNNLNASAPDWAVCSTATSHRSLSPQLLQQMPSKPEGAAKTIGSYVPGPRSRSPSLNRLGGAGEDGKRPQPLWHVGSPFALGANKDSLSAFEYPGPKRKLYSAVPGRLFVAVKPYQPQVDGEIPLHRGDRVKVLSIGEGGFWEGSARGHIGWFPAECVEEVQCKPRDSQAETRADRSKKLFRHYTVGYYDSFDTSSDCIIEEKTVVLQKKDNEGFGFVLRGAKADTPIEEFTPTPAFPALQYLESVDEGGVAWQAGLRTGDFLIEVNNENVVKVGHRQVVNMIRQGGNHLVLKVVTVTRNLDPDDTARKKAPPPPKRAPTTALTLRSKSMTSELEELVDKASVRKKKDKPEEIVPASKPSRAAENMAVEPRVATIKQRPSSRCFPAGSDMNSVYERQGIAVMTPTVPGSPKAPFLGIPRGTMRRQKSIDSRIFLSGITEEERQFLAPPMLKFTRSLSMPDTSEDIPPPPQSVPPSPPPPSPTTYNCPKSPTPRVYGTIKPAFNQNSAAKVSPATRSDTVATMMREKGMYFRRELDRYSLDSEDLYSRNAGPQANFRNKRGQMPENPYSEVGKIASKAVYVPAKPARRKGMLVKQSNVEDSPEKTCSIPIPTIIVKEPSTSSSGKSSQGSSMEIDPQAPEPPSQLRPDESLTVSSPFAAAIAGAVRDREKRLEARRNSPAFLSTDLGDEDVGLGPPAPRTRPSMFPEEGDFADEDSAEQLSSPMPSATPREPENHFVGGAEASAPGEAGRPLNSTSKAQGPESSPAVPSASSGTAGPGNYVHPLTGRLLDPSSPLALALSARDRAMKESQQGPKGEAPKADLNKPLYIDTKMRPSLDAGFPTVTRQNTRGPLRRQETENKYETDLGRDRKGDDKKNMLIDIMDTSQQKSAGLLMVHTVDATKLDNALQEEDEKAEVEMKPDSSPSEVPEGVSETEGALQISAAPEPTTVPGRTIVAVGSMEEAVILPFRIPPPPLASVDLDEDFIFTEPLPPPLEFANSFDIPDDRAASVPALSDLVKQKKSDTPQSPSLNSSQPTNSADSKKPASLSNCLPASFLPPPESFDAVADSGIEEVDSRSSSDHHLETTSTISTVSSISTLSSEGGENVDTCTVYADGQAFMVDKPPVPPKPKMKPIIHKSNALYQDALVEEDVDSFVIPPPAPPPPPGSAQPGMAKVLQPRTSKLWGDVTEIKSPILSGPKANVISELNSILQQMNREKLAKPGEGLDSPMGAKSASLAPRSPEIMSTISGTRSTTVTFTVRPGTSQPITLQSRPPDYESRTSGTRRAPSPVVSPTEMNKETLPAPLSAATASPSPALSDVFSLPSQPPSGDLFGLNPAGRSRSPSPSILQQPISNKPFTTKPVHLWTKPDVADWLESLNLGEHKEAFMDNEIDGSHLPNLQKEDLIDLGVTRVGHRMNIERALKQLLDR |
| 2.8 | mCherry-tagged human Shank2a (WT), Q9UPX8-3 N690S (protein) MPRSPTSSEDEMAQSFSDYSVGSESDSSKEETIYDTIRATAEKPGGARTEESQGNTLVIRVVIHDLQQTKCIRFNPDATVWVAKQRILCTLTQSLKDVLNYGLFQPASNGRDGKFLDEERLLREYPQPVGEGVPSLEFRYKKRVYKQASLDEKQLAKLHTKTNLKKCMDHIQHRLVEKITKMLDRGLDPNFHDPETGETPLTLAAQLDDSVEVIKALKNGGAHLDFRAKDGMTALHKAARARNQVALKTLLELGASPDYKDSYGLTPLYHTAIVGGDPYCCELLLHEHATVCCKDENGWHEIHQACRYGHVQHLEHLLFYGADMSAQNASGNTALHICALYNQDSCARVLLFRGGNKELKNYNSQTPFQVAIIAGNFELAEYIKNHKETDIVPFREAPAYSNRRRRPPNTLAAPRVLLRSNSDNNLNASAPDWAVCSTATSHRSLSPQLLQQMPSKPEGAAKTIGSYVPGPRSRSPSLNRLGGAGEDGKRPQPLWHVGSPFALGANKDSLSAFEYPGPKRKLYSAVPGRLFVAVKPYQPQVDGEIPLHRGDRVKVLSIGEGGFWEGSARGHIGWFPAECVEEVQCKPRDSQAETRADRSKKLFRHYTVGSYDSFDTSSDCIIEEKTVVLQKKDNEGFGFVLRGAKADTPIEEFTPTPAFPALQYLESVDEGGVAWQAGLRTGDFLIEVNSENVVKVGHRQVVNMIRQGGNHLVLKVVTVTRNLDPDDTARKKAPPPPKRAPTTALTLRSKSMTSELEELVDKASVRKKKDKPEEIVPASKPSRAAENMAVEPRVATIKQRPSSRCFPAGSDMNSVYERQGIAVMTPTVPGSPKAPFLGIPRGTMRRQKSIDSRIFLSGITEEERQFLAPPMLKFTRSLSMPDTSEDIPPPPQSVPPSPPPPSPTTYNCPKSPTPRVYGTIKPAFNQNSAAKVSPATRSDTVATMMREKGMYFRRELDRYSLDSEDLYSRNAGPQANFRNKRGQMPENPYSEVGKIASKAVYVPAKPARRKGMLVKQSNVEDSPEKTCSIPIPTIIVKEPSTSSSGKSSQGSSMEIDPQAPEPPSQLRPDESLTVSSPFAAAIAGAVRDREKRLEARRNSPAFLSTDLGDEDVGLGPPAPRTRPSMFPEEGDFADEDSAEQLSSPMPSATPREPENHFVGGAEASAPGEAGRPLNSTSKAQGPESSPAVPSASSGTAGPGNYVHPLTGRLLDPSSPLALALSARDRAMKESQQGPKGEAPKADLNKPLYIDTKMRPSLDAGFPTVTRQNTRGPLRRQETENKYETDLGRDRKGDDKKNMLIDIMDTSQQKSAGLLMVHTVDATKLDNALQEEDEKAEVEMKPDSSPSEVPEGVSETEGALQISAAPEPTTVPGRTIVAVGSMEEAVILPFRIPPPPLASVDLDEDFIFTEPLPPPLEFANSFDIPDDRAASVPALSDLVKQKKSDTPQSPSLNSSQPTNSADSKKPASLSNCLPASFLPPPESFDAVADSGIEEVDSRSSSDHHLETTSTISTVSSISTLSSEGGENVDTCTVYADGQAFMVDKPPVPPKPKMKPIIHKSNALYQDALVEEDVDSFVIPPPAPPPPPGSAQPGMAKVLQPRTSKLWGDVTEIKSPILSGPKANVISELNSILQQMNREKLAKPGEGLDSPMGAKSASLAPRSPEIMSTISGTRSTTVTFTVRPGTSQPITLQSRPPDYESRTSGTRRAPSPVVSPTEMNKETLPAPLSAATASPSPALSDVFSLPSQPPSGDLFGLNPAGRSRSPSPSILQQPISNKPFTTKPVHLWTKPDVADWLESLNLGEHKEAFMDNEIDGSHLPNLQKEDLIDLGVTRVGHRMNIERALKQLLDR |

— publication PMC11371640, “Structural deficits in key domains of Shank2 lead to alterations in postsynaptic nanoclusters and to a neurodevelopmental disorder in humans” (Molecular Psychiatry, 2022)
